Data published in patent US20260265359A1.
Read-outs that look alike come from different tables or passages of the source.

Tests used:
[1] = target: T1, recombinant human PIGF (human) (UniProt P49763); experiment: SPR Biacore, 25 C; test antibody captured by anti-human IgG (Fc) on CM5 chip, target protein as analyte; 1:1 model
T1 sequence (looked up): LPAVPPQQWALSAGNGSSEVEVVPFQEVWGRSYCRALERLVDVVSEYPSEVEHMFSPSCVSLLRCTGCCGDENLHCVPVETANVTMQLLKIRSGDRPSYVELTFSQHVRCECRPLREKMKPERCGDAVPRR

[2] = target: T2, recombinant human VEGF-B167 (human) (UniProt P49765); experiment: as above
T2 sequence (looked up): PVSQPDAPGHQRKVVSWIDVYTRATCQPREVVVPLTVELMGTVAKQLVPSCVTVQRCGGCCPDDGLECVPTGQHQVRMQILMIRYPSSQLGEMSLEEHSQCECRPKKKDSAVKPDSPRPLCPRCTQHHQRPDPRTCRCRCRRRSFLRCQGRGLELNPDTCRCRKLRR

[3] = target: recombinant human VEGF-A165 (human) (UniProt P15692); experiment: as above
Chain of recombinant human VEGF-A165 (human) (P15692 other isoform, or with tags, fused parts or gaps limits assumed): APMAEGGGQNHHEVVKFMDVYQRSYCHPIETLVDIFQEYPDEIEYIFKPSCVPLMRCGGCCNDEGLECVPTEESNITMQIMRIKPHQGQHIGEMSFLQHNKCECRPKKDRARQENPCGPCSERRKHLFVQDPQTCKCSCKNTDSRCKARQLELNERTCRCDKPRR

[4] = target: T2, recombinant human VEGF-B167 (human); experiment: ELISA on plate-coated recombinant human VEGF-B167; anti-human IgG1-Fc-HRP, OD450
[5] = target: recombinant human VEGF-A165 (human) (UniProt P15692)
[6] = target: recombinant human VEGF-A165 (human) (UniProt P15692); experiment: ELISA on plate-coated recombinant human VEGF-A165; anti-human IgG1-Fc-HRP, OD450
[7] = target: T1, recombinant human PIGF (human); experiment: ELISA on plate-coated recombinant human PIGF; anti-human IgG1-Fc-HRP, OD450
[8] = target: recombinant human VEGF-A165 (human) (UniProt P15692); remark: listed apart in the source
[9] = target: T1, recombinant human PIGF (human); experiment: SPR Biacore, 25 C; test antibody captured by anti-human IgG (Fc) on CM5 chip, target protein as analyte; 1:1 model; remark: listed apart in the source
[10] = target: T2, recombinant human VEGF-B167 (human); experiment: as above; remark: listed apart in the source
[11] = target: recombinant human VEGF-A165 (human) (UniProt P15692); experiment: as above; remark: listed apart in the source
[12] = target: recombinant human VEGF-A165 (human) (UniProt P15692); remark: listed apart in the source
[13] = target: T1, recombinant human PIGF (human); experiment: ELISA on plate-coated recombinant human PIGF; anti-human IgG1-Fc-HRP, OD450; remark: listed apart in the source
[14] = target: recombinant human Ang-2 (human) (UniProt O15123); experiment: ELISA on plate-coated recombinant human Ang-2; anti-human IgG1-Fc-HRP, OD450
Chain of recombinant human Ang-2 (human) (O15123 19-496 limits assumed): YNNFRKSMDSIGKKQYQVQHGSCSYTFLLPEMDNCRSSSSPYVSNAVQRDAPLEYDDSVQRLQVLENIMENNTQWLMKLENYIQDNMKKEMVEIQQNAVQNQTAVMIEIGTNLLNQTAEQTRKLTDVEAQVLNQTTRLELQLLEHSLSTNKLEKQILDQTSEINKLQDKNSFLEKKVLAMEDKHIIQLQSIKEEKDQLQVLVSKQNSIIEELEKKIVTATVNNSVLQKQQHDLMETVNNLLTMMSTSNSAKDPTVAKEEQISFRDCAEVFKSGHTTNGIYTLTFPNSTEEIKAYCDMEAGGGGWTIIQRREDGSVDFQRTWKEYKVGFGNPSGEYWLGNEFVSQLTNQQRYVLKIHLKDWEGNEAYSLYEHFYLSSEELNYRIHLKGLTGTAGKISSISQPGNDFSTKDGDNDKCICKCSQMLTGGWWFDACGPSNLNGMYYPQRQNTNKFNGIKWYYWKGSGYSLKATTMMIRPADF

[15] = target: human IL-6R overexpressed on engineered CHO-S cells (human) (UniProt P08887); experiment: FACS competition: antibody with biotinylated human IL-6 and CHO-S cells overexpressing human IL-6R; blocked: IL-6 binding to IL-6R
Chain of human IL-6R overexpressed on engineered CHO-S cells (human) (P08887 20-468, change not shown): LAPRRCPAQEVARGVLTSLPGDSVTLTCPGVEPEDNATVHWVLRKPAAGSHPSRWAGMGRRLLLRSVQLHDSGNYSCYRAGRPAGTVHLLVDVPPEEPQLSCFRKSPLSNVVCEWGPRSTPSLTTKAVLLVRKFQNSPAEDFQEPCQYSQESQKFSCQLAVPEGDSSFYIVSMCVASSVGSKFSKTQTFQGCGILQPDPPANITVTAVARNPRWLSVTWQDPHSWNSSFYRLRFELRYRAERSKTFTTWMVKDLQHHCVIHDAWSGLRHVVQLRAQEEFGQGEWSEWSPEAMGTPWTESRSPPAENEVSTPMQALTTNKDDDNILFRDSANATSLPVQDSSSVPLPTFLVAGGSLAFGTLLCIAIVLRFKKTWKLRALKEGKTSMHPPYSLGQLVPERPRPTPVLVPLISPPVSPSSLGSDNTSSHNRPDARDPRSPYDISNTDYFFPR

Chain of Conbercept (Fc fusion) (chain): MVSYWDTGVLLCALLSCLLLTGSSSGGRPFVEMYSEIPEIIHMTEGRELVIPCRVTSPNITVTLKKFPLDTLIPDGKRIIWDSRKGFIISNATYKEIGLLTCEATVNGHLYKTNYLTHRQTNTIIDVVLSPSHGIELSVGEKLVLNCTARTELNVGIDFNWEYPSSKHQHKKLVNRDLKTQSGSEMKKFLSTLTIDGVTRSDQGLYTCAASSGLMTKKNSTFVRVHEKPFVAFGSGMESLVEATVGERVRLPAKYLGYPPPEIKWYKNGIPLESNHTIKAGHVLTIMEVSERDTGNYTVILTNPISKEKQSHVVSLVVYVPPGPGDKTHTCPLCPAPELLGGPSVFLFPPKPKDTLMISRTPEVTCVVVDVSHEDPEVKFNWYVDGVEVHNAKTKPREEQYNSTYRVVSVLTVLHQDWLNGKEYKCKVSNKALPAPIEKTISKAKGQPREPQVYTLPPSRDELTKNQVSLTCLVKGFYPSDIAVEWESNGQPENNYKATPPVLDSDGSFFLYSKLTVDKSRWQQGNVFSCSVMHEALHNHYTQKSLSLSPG
Chain of Aflibercept (Fc fusion) (chain): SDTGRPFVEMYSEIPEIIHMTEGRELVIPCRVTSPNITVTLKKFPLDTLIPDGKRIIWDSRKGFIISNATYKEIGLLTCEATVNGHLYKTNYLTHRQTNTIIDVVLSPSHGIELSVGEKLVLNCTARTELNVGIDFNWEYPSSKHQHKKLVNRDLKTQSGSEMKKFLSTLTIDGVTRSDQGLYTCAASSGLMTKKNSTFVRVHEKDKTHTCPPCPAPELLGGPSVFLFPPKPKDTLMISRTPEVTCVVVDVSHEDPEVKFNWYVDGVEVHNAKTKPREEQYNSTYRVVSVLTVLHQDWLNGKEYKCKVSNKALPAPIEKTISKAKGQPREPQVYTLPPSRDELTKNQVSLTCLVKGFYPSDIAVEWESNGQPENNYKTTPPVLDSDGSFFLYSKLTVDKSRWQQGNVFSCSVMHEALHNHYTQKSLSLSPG

Aflibercept (Fc fusion)
Kd [1]: 0.106 nM | Kd [2]: 1.37 nM | Kd [3]: 3.44 pM | EC50 [4]: 0.076 nM | IC50, inhibition of VEGF-A165-stimulated VEGFR-2 NF-AT luciferase reporter (HEK-293), luminescence [5]: 0.606 nM | EC50 [6]: 0.008 nM | EC50 [7]: 0.012 nM | IC50, inhibition of VEGF-A165-stimulated VEGFR-2 NF-AT luciferase reporter (HEK-293), luminescence [8]: 0.595 nM | Kd [9]: 0.148 nM | Kd [10]: 1.85 nM | Kd [11]: 2.57 pM | IC50, inhibition of VEGF-A165-stimulated VEGFR-2 NF-AT luciferase reporter (HEK-293), luminescence [12]: 0.326 nM

Conbercept (Fc fusion)
EC50 [4]: 0.009 nM | EC50 [6]: 0.078 nM | EC50 [7]: 0.089 nM | EC50 [13]: 0.103 nM

Tie-2-Fc (Fc fusion)
EC50 [14]: 8.32 nM

Vobarilizumab-Fc (Fc fusion)
IC50 [15]: 0.524 nM
